# Measurements as given in patent US20230103885A1 (CRISPR THERAPEUTICS, published 2023).
# T1: FMC63-scFv linker peptide
# T1 construct: also called coating antigen B
# T1 peptide: TGSTSGSGKPGSGEGSTKG
# What was measured:
# [1] = molecular target: T2, anti-CD19 CAR comprising the anti-CD19 scFv of SEQ ID NO:1; assay: flow cytometry on anti-CD19 CAR T cells, dilution 1:200
# T2 construct: also called anti-CD19 chimeric antigen receptor; anti-CD19 CAR T cells
# Source text: (§1) The 29E4B5 antibodies produced using the first or the second method were compared with a reference anti-FMC63-scFv antibody (rec_mab3) for the ability to bind to the anti-CD19 CAR T cells using flow cytometry. Both methods produced 29E4B5 antibodies with higher affinity to the anti-CD19 cells than rec_mab3, showing higher CAR positive percentage even at 1:6,400 dilutions (Table 9).
# [2] = molecular target: T2, anti-CD19 CAR comprising the anti-CD19 …; assay: flow cytometry on anti-CD19 CAR T cells, dilution 1:6400
# Source text: as §1
# [3] = molecular target: T3, Recombinant FMC63-scFv protein; assay: indirect ELISA, purified native antibody at 3.90 ng/ml (1:256,000)
# T3 construct: also called His-tagged single-chain variable fragment of mouse anti-human CD19 antibody FMC63; coating antigen A
# Method: (§2) In the first (native) method, hybridoma cells (29E4B5) were cultured in low IgG culture medium in a roller bottle for 10 days. The supernatants were collected and protein A purified to obtain purified antibodies. The purified antibodies were analyzed for the ability to bind the FMC63-scFv protein and anti-CD19 CAR T cells using ELISA (Table 8).
# (§3) A: Recombinant FMC63-scFv protein B: […] (FMC63-scFv linker peptide)(SEQ ID NO: 6) C: His-tagged protein D: Total human IgG The titer was the highest dilution where the Signal/Blank (S/B) ratio was ≥2.1. OD₄₅₀ for Blank was the average of two technical replicates. The starting concentration was 1 mg/ml, and the corresponding dilution ratio was calculated based on the actual concentration.
# [4] = molecular target: T4, irrelevant His-tagged protein; assay: as above
# T4 construct: also called coating antigen C
# Method: as §2, §3
# Total human IgG [5] = molecular target: T5, Total human IgG (human); assay: as above
# T5 construct: also called coating antigen D
# Method: as §2, §3
# [6] = molecular target: T1, FMC63-scFv linker peptide; assay: as above
# Method: as §2, §3
# [7] = molecular target: T3, Recombinant FMC63-scFv protein; assay: indirect ELISA, purified native antibody at 1.95 ng/ml (1:512,000)
# Method: as §2, §3
# [8] = molecular target: T4, irrelevant His-tagged protein; assay: as above
# Method: as §2, §3
# Total human IgG [9] = molecular target: T5, Total human IgG; assay: as above
# Method: as §2, §3
# [10] = molecular target: T1, FMC63-scFv linker peptide; assay: as above
# Method: as §2, §3
# [11] = molecular target: T2, anti-CD19 CAR comprising the anti-CD19 …; assay: flow cytometry on anti-CD19 CAR T cells, dilution 1:1600
# Source text: as §1
# [12] = molecular target: T3, Recombinant FMC63-scFv protein; assay: indirect ELISA, purified native antibody at 125 ng/ml (1:8,000)
# Method: as §2, §3
# [13] = molecular target: T4, irrelevant His-tagged protein; assay: as above
# Method: as §2, §3
# Total human IgG [14] = molecular target: T5, Total human IgG; assay: as above
# Method: as §2, §3
# [15] = molecular target: T1, FMC63-scFv linker peptide; assay: as above
# Method: as §2, §3
# [16] = molecular target: T3, Recombinant FMC63-scFv protein; assay: indirect ELISA, purified native antibody at 31.25 ng/ml (1:32,000)
# Method: as §2, §3
# [17] = molecular target: T4, irrelevant His-tagged protein; assay: as above
# Method: as §2, §3
# Total human IgG [18] = molecular target: T5, Total human IgG; assay: as above
# Method: as §2, §3
# [19] = molecular target: T1, FMC63-scFv linker peptide; assay: as above
# Method: as §2, §3
# [20] = molecular target: T2, anti-CD19 CAR comprising the anti-CD19 …; assay: flow cytometry on anti-CD19 CAR T cells, dilution 1:3200
# Source text: as §1
# [21] = molecular target: T3, Recombinant FMC63-scFv protein; assay: indirect ELISA, purified native antibody at 250 ng/ml (1:4,000)
# Method: as §2, §3
# [22] = molecular target: T4, irrelevant His-tagged protein; assay: as above
# Method: as §2, §3
# Total human IgG [23] = molecular target: T5, Total human IgG; assay: as above
# Method: as §2, §3
# [24] = molecular target: T1, FMC63-scFv linker peptide; assay: as above
# Method: as §2, §3
# [25] = molecular target: T3, Recombinant FMC63-scFv protein; assay: indirect ELISA, purified native antibody at 7.81 ng/ml (1:128,000)
# Method: as §2, §3
# [26] = molecular target: T4, irrelevant His-tagged protein; assay: as above
# Method: as §2, §3
# Total human IgG [27] = molecular target: T5, Total human IgG; assay: as above
# Method: as §2, §3
# [28] = molecular target: T1, FMC63-scFv linker peptide; assay: as above
# Method: as §2, §3
# [29] = molecular target: T3, Recombinant FMC63-scFv protein; assay: indirect ELISA, purified native antibody at 15.62 ng/ml (1:64,000)
# Method: as §2, §3
# [30] = molecular target: T4, irrelevant His-tagged protein; assay: as above
# Method: as §2, §3
# Total human IgG [31] = molecular target: T5, Total human IgG; assay: as above
# Method: as §2, §3
# [32] = molecular target: T1, FMC63-scFv linker peptide; assay: as above
# Method: as §2, §3
# [33] = molecular target: T2, anti-CD19 CAR comprising the anti-CD19 …; assay: flow cytometry on anti-CD19 CAR T cells, dilution 1:50
# Source text: as §1
# [34] = molecular target: T2, anti-CD19 CAR comprising the anti-CD19 …; assay: flow cytometry on anti-CD19 CAR T cells, dilution 1:100
# Source text: as §1
# [35] = molecular target: T2, anti-CD19 CAR comprising the anti-CD19 …; assay: flow cytometry on anti-CD19 CAR T cells, dilution 1:800
# Source text: as §1
# [36] = molecular target: T3, Recombinant FMC63-scFv protein; assay: indirect ELISA, purified native antibody at 500 ng/ml (1:2,000)
# Method: as §2, §3
# [37] = molecular target: T4, irrelevant His-tagged protein; assay: as above
# Method: as §2, §3
# Total human IgG [38] = molecular target: T5, Total human IgG; assay: as above
# Method: as §2, §3
# [39] = molecular target: T1, FMC63-scFv linker peptide; assay: as above
# Method: as §2, §3
# [40] = molecular target: T3, Recombinant FMC63-scFv protein; assay: indirect ELISA, purified native antibody; highest dilution with Signal/Blank >=2.1
# Method: as §2, §3
# [41] = molecular target: T4, irrelevant His-tagged protein; assay: as above
# Method: as §2, §3
# Total human IgG [42] = molecular target: T5, Total human IgG; assay: as above
# Method: as §2, §3
# [43] = molecular target: T1, FMC63-scFv linker peptide; assay: as above
# Method: as §2, §3
# [44] = molecular target: T3, Recombinant FMC63-scFv protein; assay: indirect ELISA, purified native antibody at 62.50 ng/ml (1:16,000)
# Method: as §2, §3
# [45] = molecular target: T4, irrelevant His-tagged protein; assay: as above
# Method: as §2, §3
# Total human IgG [46] = molecular target: T5, Total human IgG; assay: as above
# Method: as §2, §3
# [47] = molecular target: T1, FMC63-scFv linker peptide; assay: as above
# Method: as §2, §3
# [48] = molecular target: T3, Recombinant FMC63-scFv protein; assay: indirect ELISA, purified native antibody at 1,000 ng/ml (1:1,000)
# Method: as §2, §3
# [49] = molecular target: T4, irrelevant His-tagged protein; assay: as above
# Method: as §2, §3
# Total human IgG [50] = molecular target: T5, Total human IgG; assay: as above
# Method: as §2, §3
# [51] = molecular target: T1, FMC63-scFv linker peptide; assay: as above
# Method: as §2, §3
# [52] = molecular target: T3, Recombinant FMC63-scFv protein; assay: indirect ELISA, subclone culture supernatant on coated antigen
# [53] = molecular target: T4, irrelevant His-tagged protein; assay: as above
# Total human IgG [54] = molecular target: T5, Total human IgG; assay: as above
# [55] = molecular target: T1, FMC63-scFv linker peptide; assay: as above
# [56] = molecular target: T2, anti-CD19 CAR comprising the anti-CD19 …; assay: flow cytometry on anti-CD19 CAR T cells, dilution 1:400
# Source text: as §1
# T3 sequence (scFv, as listed by the source): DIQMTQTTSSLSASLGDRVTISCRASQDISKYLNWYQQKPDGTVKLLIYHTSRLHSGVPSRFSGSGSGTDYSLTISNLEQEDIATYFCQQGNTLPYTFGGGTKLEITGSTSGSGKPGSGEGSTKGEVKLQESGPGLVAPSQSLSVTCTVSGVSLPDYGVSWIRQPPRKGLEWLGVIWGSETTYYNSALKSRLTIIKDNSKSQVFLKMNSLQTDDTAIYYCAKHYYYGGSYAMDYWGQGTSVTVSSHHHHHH
binder,measurement,setting,value
"mouse anti-FMC63-scFv monoclonal antibody 29E4B5 (antibody, mouse IgG1, kappa, V domains shown, Hybridoma-derived antibody (culture supernatant, microscale purified, or protein A purified native lot), isotype IgG1, kappa; These are left out by the residue ranges; also called 29E4B5-1; 29E4B5-1 (Native)) VH: EVKLLQSGGGLVQPGGSLKLSCAASGIDFSRYWMSWVRRAPGKGLEWIGEINLDSSTKNYAPSLKDKFIISRDNAKNTLYLQMSKVRSEDTALYYCARNYVGMDYWGQGTSVTVSS VL: DIVLTQSPASLAVSLGQRATISCRASKSVSSSDYTYMHWYQQKPGQPPKLLIYLASNLESGVPARFSGSGSGTDFTLNIHPVEEEDAATYYCQHSRELPPTFGGGTKLEIKR",% CAR+,[1],67.9%
same,% CAR+,[2],60.5%
same,OD450,[3],0.407 OD450
same,OD450,[4],0.084 OD450
same,OD450,Total human IgG [5],0.073 OD450
same,OD450,[6],0.068 OD450
same,OD450,[7],0.245 OD450
same,OD450,[8],0.085 OD450
same,OD450,Total human IgG [9],0.076 OD450
same,OD450,[10],0.077 OD450
same,% CAR+,[11],67.9%
same,OD450,[12],1.79 OD450
same,OD450,[13],0.057 OD450
same,OD450,Total human IgG [14],0.069 OD450
same,OD450,[15],0.059 OD450
same,OD450,[16],1.32 OD450
same,OD450,[17],0.059 OD450
same,OD450,Total human IgG [18],0.076 OD450
same,OD450,[19],0.061 OD450
same,% CAR+,[20],62.9%
same,OD450,[21],1.85 OD450
same,OD450,[22],0.054 OD450
same,OD450,Total human IgG [23],0.079 OD450
same,OD450,[24],0.062 OD450
same,OD450,[25],0.676 OD450
same,OD450,[26],0.06 OD450
same,OD450,Total human IgG [27],0.064 OD450
same,OD450,[28],0.076 OD450
same,OD450,[29],0.983 OD450
same,OD450,[30],0.088 OD450
same,OD450,Total human IgG [31],0.067 OD450
same,OD450,[32],0.067 OD450
same,% CAR+,[33],70.1%
same,% CAR+,[34],69.2%
same,% CAR+,[35],67.6%
same,OD450,[36],1.89 OD450
same,OD450,[37],0.059 OD450
same,OD450,Total human IgG [38],0.08 OD450
same,OD450,[39],0.059 OD450
same,Titer,[40],512000 dilution (1:x)
same,Titer,[41],< 1000 dilution (1:x)
same,Titer,Total human IgG [42],< 1000 dilution (1:x)
same,Titer,[43],< 1000 dilution (1:x)
same,OD450,[44],1.71 OD450
same,OD450,[45],0.051 OD450
same,OD450,Total human IgG [46],0.071 OD450
same,OD450,[47],0.075 OD450
same,OD450,[48],1.88 OD450
same,OD450,[49],0.059 OD450
same,OD450,Total human IgG [50],0.073 OD450
same,OD450,[51],0.064 OD450
same,OD450 nm,[52],1.5 OD450
same,OD450 nm,[53],0.201 OD450
same,OD450 nm,Total human IgG [54],0.178 OD450
same,OD450 nm,[55],0.087 OD450
same,% CAR+,[56],67.6%
"reference anti-FMC63-scFv antibody (rec_mab3) (antibody, V domains shown, also called control anti-FMC63-scFv antibody) VH: EVKLVESGGGLVQPGGSLKLSCAASGFDFSRYWMSWVRQAPGKGLEWIGEINLDSSTINYTPSLKDKFIISRDNAKNTLYLQMSKVRSEDTALYYCARRYDAMDYWGQGTSVTVSS VL: not shown",% CAR+,[1],69.7%
same,% CAR+,[2],49.1%
same,% CAR+,[11],62.2%
same,% CAR+,[20],56.6%
same,% CAR+,[33],69.8%
same,% CAR+,[34],69.4%
same,% CAR+,[35],66.4%
same,% CAR+,[56],68.9%
"29E4B5-1 (Recombinant) (antibody, V domains shown, also called recombinant 29E4B5 antibody) VH: EVKLLQSGGGLVQPGGSLKLSCAASGIDFSRYWMSWVRRAPGKGLEWIGEINLDSSTKNYAPSLKDKFIISRDNAKNTLYLQMSKVRSEDTALYYCARNYVGMDYWGQGTSVTVSS VL: DIVLTQSPASLAVSLGQRATISCRASKSVSSSDYTYMHWYQQKPGQPPKLLIYLASNLESGVPARFSGSGSGTDFTLNIHPVEEEDAATYYCQHSRELPPTFGGGTKLEIK",% CAR+,[1],68.8%
same,% CAR+,[2],58%
same,% CAR+,[11],65.9%
same,% CAR+,[20],62.5%
same,% CAR+,[33],69.6%
same,% CAR+,[34],69.3%
same,% CAR+,[35],68%
same,% CAR+,[56],69.1%
